Results published in paper PMC9130954.

Legend:
[1] = biological target: Photosystem I (PSI) complex from Anabaena sp. PCC 7120, the monomeric unit of the PSI oligomers (Anabaena sp. PCC 7120 (endogenous)) (UniProt P58576); experiment: negative staining EM, single-particle 2D class averaging; purified supercomplex 1 sample, 0.19 mg/ml, 0.75% uranyl formate, 120 kV; 2,518 particles; PSI tetramer and dimer models rigidly fitted over the 2D map
[2] = biological target: Photosystem I (PSI) complex from Anabaena sp. PCC 7120, the monomeric unit of the PSI oligomers (Anabaena sp. PCC 7120 (endogenous)) (UniProt P58576); experiment: negative staining EM, single-particle 2D class averaging; purified supercomplex 2 sample, 0.27 mg/ml, 0.75% uranyl formate, 120 kV; 822 particles; PSI tetramer models rigidly fitted over the 2D map
[3] = biological target: Photosystem I (PSI) complex from Anabaena sp. PCC 7120, the monomeric unit of the PSI oligomers (Anabaena sp. PCC 7120 (endogenous)) (UniProt P58576); experiment: negative staining EM, single-particle 2D class averaging; purified PSI tetramer sample, 0.15 mg/ml, 0.75% uranyl formate, 120 kV; 359 particles; PSI tetramer structure as reference
[4] = biological target: Photosystem I (PSI) complex from Anabaena sp. PCC 7120, the monomeric unit of the PSI oligomers (Anabaena sp. PCC 7120 (endogenous)) (UniProt P58576); experiment: cryo-EM structure; PSI supercomplex 2 purified by BN-PAGE and re-extraction (buffer A with 0.03% digitonin), about 2.5 mg/ml, fos-choline-8 at 1.0 mM added before blotting; single-particle map at 7.0 Å overall, no symmetry (C1); published PSI dimer (PDB 6K61) and tetramer (PDB 6TCL) models fitted as rigid bodies

- stoichiometry N [2]: 8
- stoichiometry N [3]: 4
- stoichiometry N [4]: 8
Substance: Photosystem I (PSI) complex from Anabaena sp. PCC 7120, the monomeric unit of the PSI oligomers (from UniProt P58576 1-752; P58565 1-741; P58564 24-164; P58583 1-86; P58577 1-172; Q8YNB0 1-32)
- stoichiometry N [1]: 6
